Laboratory results taken from publication doi:10.1101/2023.12.11.571162 (2023).

Columns and labels:
Test in all cases: BLI
39G7 = target: 39G7
8D1 = target: 8D1
anti-LHFPL5 = target: anti-LHFPL5

8D1, sequence (Q99PJ1 27-1943): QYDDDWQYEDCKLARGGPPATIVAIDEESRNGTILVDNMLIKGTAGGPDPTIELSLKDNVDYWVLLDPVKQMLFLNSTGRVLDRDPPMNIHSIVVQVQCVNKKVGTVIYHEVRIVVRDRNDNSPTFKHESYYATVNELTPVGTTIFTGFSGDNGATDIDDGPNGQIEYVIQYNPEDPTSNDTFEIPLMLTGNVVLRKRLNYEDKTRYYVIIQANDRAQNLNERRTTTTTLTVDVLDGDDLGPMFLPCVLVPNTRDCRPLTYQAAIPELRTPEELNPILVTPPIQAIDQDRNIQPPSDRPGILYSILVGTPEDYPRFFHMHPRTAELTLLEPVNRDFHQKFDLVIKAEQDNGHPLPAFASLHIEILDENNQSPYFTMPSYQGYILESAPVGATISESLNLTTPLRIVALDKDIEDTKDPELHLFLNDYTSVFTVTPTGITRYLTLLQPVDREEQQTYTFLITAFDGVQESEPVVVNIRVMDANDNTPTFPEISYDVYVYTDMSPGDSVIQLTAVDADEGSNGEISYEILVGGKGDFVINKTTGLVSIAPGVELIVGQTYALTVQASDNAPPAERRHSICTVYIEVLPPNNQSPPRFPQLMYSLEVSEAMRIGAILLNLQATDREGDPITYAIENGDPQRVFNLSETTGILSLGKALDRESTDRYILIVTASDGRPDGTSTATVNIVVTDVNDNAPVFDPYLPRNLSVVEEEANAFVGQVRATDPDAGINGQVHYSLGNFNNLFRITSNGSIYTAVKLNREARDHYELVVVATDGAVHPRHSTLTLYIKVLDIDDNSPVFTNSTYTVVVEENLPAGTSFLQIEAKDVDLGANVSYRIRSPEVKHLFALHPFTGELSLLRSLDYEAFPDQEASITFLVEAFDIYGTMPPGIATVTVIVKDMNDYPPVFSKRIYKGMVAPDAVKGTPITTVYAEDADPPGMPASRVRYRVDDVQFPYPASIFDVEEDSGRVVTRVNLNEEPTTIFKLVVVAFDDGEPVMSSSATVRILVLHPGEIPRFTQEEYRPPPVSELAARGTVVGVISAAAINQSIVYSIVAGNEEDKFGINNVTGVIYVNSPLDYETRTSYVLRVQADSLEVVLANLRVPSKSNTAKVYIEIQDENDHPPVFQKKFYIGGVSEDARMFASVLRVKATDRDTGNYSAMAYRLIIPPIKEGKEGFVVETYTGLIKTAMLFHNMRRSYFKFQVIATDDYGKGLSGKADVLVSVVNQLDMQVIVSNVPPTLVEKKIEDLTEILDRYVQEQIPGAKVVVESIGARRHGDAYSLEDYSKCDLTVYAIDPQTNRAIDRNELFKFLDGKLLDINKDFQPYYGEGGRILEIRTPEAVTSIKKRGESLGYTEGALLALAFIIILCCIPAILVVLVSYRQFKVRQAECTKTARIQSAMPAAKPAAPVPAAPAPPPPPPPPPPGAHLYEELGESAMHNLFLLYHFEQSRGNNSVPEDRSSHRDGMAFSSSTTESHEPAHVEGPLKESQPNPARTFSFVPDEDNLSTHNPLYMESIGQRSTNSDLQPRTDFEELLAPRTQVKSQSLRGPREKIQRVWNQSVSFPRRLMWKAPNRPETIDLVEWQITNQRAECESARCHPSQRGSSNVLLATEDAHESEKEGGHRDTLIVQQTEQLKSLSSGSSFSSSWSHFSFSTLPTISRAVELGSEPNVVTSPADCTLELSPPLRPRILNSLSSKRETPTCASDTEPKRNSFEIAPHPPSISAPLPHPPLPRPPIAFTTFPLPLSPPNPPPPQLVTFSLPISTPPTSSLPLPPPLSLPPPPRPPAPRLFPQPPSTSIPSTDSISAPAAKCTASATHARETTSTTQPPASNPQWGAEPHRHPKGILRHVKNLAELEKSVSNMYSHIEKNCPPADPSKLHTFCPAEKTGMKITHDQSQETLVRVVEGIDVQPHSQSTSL
39G7, sequence (Q99PJ1 27-1943): as above

Row | Kd (39G7) [nM] | koff (39G7) [s⁻¹] | Kd (8D1) [nM] | koff (8D1) [s⁻¹] | Kd (anti-LHFPL5) [nM] | koff (anti-LHFPL5) [s⁻¹] | Binder
1 | 0.2 | 2e-05 | 0.05 | 3e-05 | – | – | recombinant protocadherin-15 (PCDH15), Mus musculus, His-tagged construct co-expressed with LHFPL5 (natural protein) not shown
2 | – | – | – | – | 1 | 5e-05 | recombinant lipoma HMGIC fusion partner-like protein 5 (LHFPL5), Mus musculus, strep-tagged construct co-expressed with PCDH15 (natural protein) MVKLLPAQEAAKIYHTNYVRNSRAVGVMWGTLTICFSVLVMALFIQPYWIGDSVSTPQAGYFGLFSYCVGNVLSSELICKGGPLDFSSIPSRAFKTAMFFVALAMFLIIGSIICFSLFFVCNTATVYKICAWMQLAAATGLMIGCLVYPDGWDSSEVRRMCGEQTGKYTLGHCTIRWAFMLAILSIGDALILSFLAFVLGYRQDKLLPDDYKADGNEEV
